Experimental data published in CN106916225A (UNIV JINAN, dated 2017).
Each block holds one binder with its values, some of them ahead of it.

Tests used:
[1] = target: T1, 人N端脑钠肽前体 (N-terminal pro-brain natriuretic peptide, NT-proBNP) (human, UniProt P16860 27-102); assay: indirect ELISA, NT-proBNP coated at 400 ng/ml, serially diluted purified ascites antibody
T1 construct: domain: N端脑钠肽前体 (NT-proBNP), 76个氨基酸残基; Bought recombinant protein; also called hNT-proBNP; 人N末端B型脑钠肽前体
T1 sequence (looked up): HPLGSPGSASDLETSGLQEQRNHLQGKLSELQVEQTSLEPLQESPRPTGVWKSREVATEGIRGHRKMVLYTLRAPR

[2] = target: T1, 人N端脑钠肽前体 (N-terminal pro-brain …); assay: non-competitive enzyme immunoassay (ELISA), NT-proBNP coated at 400, 100, 25 ng/mL, Ka=(n-1)/2(n[Ab']t-[Ab]t)

效价 (antibody dilution at OD450 about 1.0) [1]: > 1e+06 dilution fold (1:x)
B1: 单克隆抗体Ab3 (抗人N端脑钠肽前体单克隆抗体) (antibody, V domains shown)
VH: QVQLQQPGAELVKPGASVKMSCQASGFTFTNYIIHWVKQTPGQGLEWIGAIYPGNGDTSYNQKFRGKATLTADKSSNTAYMQLSSLTSEDSAVYYCAGEDNYGNSYWYFDVWGAGTTVTVSS
VL: DIVMTQTPLSLPVSLGDQASISCRSSQSIVHSTGNTYLEWYLQKPGQSPKLLIYKVSNRLSGVPDRFSGSGSGTDFTLKISRVEAEDLGVYYCFQGSQVSLTFGAGTKLELKR

Ka [2]: 1e+10 M⁻¹
效价 (antibody dilution at OD450 about 1.0) [1]: > 1e+06 dilution fold (1:x)
B2: 单克隆抗体Ab1 (抗人N端脑钠肽前体单克隆抗体, 杂交瘤细胞株3A2分泌) (antibody)
chain 1: VKLQESGPELVKPGASQKISCKTSGYTFTVYTLHWVKQSHGKSLEWIGAINPKTGSIRNNQKFRDKAILTIDRSSNTAYMDLRSLTSDDSAVYFCARNGGHDVYFFDYWGQGTTVTVSS
chain 2: DIVLTQSPASLAVSLGQRATISYRASKSVSTSGYSYMHWNQQKPGQPPRLLIYLVSNLESGVPARFSGSGSGTDFTLNIHPVEEEDAATYYCQHIR
